Measurements from article PMC9973331, “DNA Methylation and RNA-DNA Hybrids Regulate the Single-Molecule Localization of a DNA Methyltransferase on the Bacterial Nucleoid”.

How the values were obtained:
DnmA[6AA*] = molecular target: T1, DnmA[6AA*] (Bacillus subtilis, UniProt O31504 1-879, K470A;M620A;N748A;L780A;K781A;D783A); assay: EMSA; EMSA: 5x buffer 500 mM Tris-HCl pH 8, 1.25 M NaCl, 10% glycerol (1x: 100 mM Tris, 250 mM NaCl, 2% glycerol), 5 nM probe, 30 min at 25 C; 6% native PAGE in 1x TBE on ice; conditions: protein: recombinant; tags: His-SUMO tag (pE-SUMO) removed by SUMO protease; label: 5' IRDye700 on strand 1; 5' IRDye800 on strand 2; blunt
T1 sequence: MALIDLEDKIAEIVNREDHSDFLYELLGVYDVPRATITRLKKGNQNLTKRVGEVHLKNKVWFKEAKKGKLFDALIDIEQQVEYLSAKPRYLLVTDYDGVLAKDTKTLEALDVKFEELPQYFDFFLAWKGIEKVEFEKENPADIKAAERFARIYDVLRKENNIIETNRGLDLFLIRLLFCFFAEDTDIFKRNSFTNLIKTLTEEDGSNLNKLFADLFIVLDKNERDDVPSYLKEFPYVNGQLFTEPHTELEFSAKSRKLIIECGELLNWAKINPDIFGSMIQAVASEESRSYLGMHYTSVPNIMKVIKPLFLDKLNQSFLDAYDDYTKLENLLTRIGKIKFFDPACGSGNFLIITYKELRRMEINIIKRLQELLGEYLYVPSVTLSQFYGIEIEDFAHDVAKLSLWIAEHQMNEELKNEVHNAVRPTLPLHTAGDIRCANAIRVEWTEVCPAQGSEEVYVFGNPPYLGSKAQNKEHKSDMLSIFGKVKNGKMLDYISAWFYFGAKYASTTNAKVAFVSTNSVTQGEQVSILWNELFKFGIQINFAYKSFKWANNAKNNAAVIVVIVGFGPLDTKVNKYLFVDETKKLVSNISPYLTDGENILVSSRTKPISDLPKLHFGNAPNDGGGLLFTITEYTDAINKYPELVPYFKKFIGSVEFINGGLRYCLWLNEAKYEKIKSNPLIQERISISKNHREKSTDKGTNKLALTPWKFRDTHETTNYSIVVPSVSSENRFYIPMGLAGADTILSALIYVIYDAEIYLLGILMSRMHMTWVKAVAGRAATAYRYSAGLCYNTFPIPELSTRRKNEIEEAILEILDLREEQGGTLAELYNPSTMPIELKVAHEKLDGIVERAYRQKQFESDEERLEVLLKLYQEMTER

DnmA[Y465A] = molecular target: T2, DnmA[Y465A] (Bacillus subtilis, UniProt O31504 1-879, Y465A); assay: as above; conditions: protein: recombinant; tags: His-SUMO tag (pE-SUMO) removed by SUMO protease; label: 5' IRDye700 on strand 1; 5' IRDye800 on strand 2; blunt
T2 sequence: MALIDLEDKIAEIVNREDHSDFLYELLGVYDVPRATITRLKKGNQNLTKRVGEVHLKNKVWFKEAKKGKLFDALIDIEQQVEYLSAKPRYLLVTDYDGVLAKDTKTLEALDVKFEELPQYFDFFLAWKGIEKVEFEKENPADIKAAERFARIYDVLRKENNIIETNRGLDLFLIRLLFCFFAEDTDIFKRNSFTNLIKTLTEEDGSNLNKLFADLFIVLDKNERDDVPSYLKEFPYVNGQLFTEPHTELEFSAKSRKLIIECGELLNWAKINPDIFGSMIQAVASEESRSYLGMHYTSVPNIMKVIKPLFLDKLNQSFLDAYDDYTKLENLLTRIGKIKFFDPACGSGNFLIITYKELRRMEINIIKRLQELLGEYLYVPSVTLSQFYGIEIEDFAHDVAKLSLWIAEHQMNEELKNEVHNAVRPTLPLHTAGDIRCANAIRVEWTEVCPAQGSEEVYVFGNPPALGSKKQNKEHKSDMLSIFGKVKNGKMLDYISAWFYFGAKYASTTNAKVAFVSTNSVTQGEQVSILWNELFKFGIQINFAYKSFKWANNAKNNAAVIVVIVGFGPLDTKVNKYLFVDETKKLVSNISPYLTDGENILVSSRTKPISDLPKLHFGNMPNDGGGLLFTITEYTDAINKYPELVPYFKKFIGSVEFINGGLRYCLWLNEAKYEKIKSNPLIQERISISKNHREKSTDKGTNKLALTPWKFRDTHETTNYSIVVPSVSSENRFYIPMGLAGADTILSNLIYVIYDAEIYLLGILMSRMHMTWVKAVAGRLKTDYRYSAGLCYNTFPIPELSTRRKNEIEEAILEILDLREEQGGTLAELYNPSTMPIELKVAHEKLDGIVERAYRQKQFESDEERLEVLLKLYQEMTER

B1: unmethylated dsDNA (oTMN67/oTMN68) (dsDNA)
DNA 1: CAAAACAGGATATGAAATAGTATTGGACGAGAGCTTTTTGGTGGCTTATACTATAG
DNA 2: CTATAGTATAAGCCACCAAAAAGCTCTCGTCCAATACTATTTCATATCCTGTTTTG
- apparent K (half saturation) (DnmA[6AA*]): 458 ± 185 nM
- apparent K (half saturation) (DnmA[Y465A]): 164 ± 26.8 nM
